The target in assay [1] is T1, rhTLR-2 (recombinant human TLR-2) (human, UniProt O60603 21-588, limits assumed).
T1 construct: Soluble recombinant protein reconstituted from dry powder, used as SPR analyte; also called glycosylated human receptor analyte
The assay can be described thus: SPR, Biacore T100, antibody amine-coupled to CM5 chip, receptor as analyte, bivalent binding model, 25 C. How it is done: (§1) Upon insertion of the CM5 chip the system was primed and then normalised with BIAnormalising solution (Biacore Preventative Maintenance Kit 2). All samples were run at 25° C. with a sample rack incubated at 25° C. unless stated. The chip was added to the system with HBS-EP used as the running buffer. The chip surface was primed with two 30 second injections of 50 mM NaOH then left until a stable baseline was obtained in all the Flow cells (Fcs).
(§2) All antibodies were immobilised using standard amine coupling chemistry. Immobilisation was carried out at a protein concentration of around 1 μg.ml-1 in 10 mM Acetate buffer pH5.5 to a target response level of 150RUs on three CM5 Series S sensor chips. Kinetic data was obtained at a flow rate of 40 μl·min-1 to minimise any potential mass transfer effects. The blank (no receptor) and a single concentration of the analytes (100 nM) was repeated at the start of the kinetic runs in order to check the stability of both the surface and two receptors over the kinetic analyses. Two repeats of the kinetic analysis were carried out and the results compared.
(§3) Association rates (Kₒₙ) and dissociation rates (Koff) were calculated using a bivalent binding model (BIAcore Evaluation Software version 3.2). The equilibrium dissociation constant (Ko) was calculated as the ratio […].
In general terms: In SPR one partner is held on a chip, and binding of the other changes the refractive index at the surface.

Assay [2] deals with T2, rmTLR2/Fc (recombinant murine TLR-2) (Mus musculus, UniProt Q9QUN7 25-587, limits assumed).
T2 construct: Recombinant Fc fusion used as SPR analyte, MW of 98 kDa printed; also called murine receptor
T2 sequence: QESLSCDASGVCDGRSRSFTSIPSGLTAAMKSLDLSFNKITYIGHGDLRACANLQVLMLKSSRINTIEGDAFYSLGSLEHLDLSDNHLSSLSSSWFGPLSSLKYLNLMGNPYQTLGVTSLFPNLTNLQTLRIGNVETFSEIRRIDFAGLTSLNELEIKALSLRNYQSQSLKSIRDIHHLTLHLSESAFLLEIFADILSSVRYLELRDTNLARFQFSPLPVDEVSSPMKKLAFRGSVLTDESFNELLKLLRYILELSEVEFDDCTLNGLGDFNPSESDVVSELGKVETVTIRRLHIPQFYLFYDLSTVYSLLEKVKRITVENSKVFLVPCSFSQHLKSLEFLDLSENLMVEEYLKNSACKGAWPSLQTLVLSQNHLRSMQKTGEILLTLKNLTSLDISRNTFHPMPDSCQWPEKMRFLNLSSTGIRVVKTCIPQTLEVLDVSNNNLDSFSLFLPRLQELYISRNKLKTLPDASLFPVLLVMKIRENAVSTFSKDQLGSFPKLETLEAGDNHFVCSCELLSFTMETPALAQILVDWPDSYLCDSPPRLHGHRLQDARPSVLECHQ
Described as above. How it is done: as §1, §2, §3

The target in assay [3] is T3, monkey Toll-like Receptor 2 expressed on cynomologus monkey whole blood cells (granulocytes, monocytes) (cynomologus monkey, UniProt Q95M53 19-784).
T3 construct: whole, on cells; also called monkey TLR2
T3 sequence (Q95M53 19-784): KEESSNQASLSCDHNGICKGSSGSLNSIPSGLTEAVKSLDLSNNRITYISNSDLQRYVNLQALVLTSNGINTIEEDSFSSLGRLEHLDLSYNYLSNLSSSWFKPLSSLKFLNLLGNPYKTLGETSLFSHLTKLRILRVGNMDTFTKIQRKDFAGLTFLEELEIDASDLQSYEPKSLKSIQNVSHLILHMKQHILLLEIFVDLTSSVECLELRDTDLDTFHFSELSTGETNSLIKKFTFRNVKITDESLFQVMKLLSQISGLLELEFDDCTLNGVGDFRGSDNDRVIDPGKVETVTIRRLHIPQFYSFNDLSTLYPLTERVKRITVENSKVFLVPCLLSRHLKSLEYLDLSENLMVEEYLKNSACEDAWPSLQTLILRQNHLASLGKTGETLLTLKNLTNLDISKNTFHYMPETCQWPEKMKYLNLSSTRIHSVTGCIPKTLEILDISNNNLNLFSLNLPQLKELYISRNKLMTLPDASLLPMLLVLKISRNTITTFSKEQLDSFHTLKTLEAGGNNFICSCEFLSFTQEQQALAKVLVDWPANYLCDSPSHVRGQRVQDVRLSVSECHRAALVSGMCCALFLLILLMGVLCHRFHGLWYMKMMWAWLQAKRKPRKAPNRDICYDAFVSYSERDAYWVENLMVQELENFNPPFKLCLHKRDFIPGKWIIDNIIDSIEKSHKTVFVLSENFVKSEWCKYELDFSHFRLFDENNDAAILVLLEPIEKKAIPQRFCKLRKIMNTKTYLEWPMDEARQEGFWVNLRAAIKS
The assay can be described thus: FACS, cynomolgus whole blood, gate Granulocytes (R3), biotinylated OPN301, detection SA-PECy7 [A]. The protocol:
Cells were then washed and incubated with streptavidin conjugated to PECy7 for a further 30 minutes.
Binding was measured using FACScalibur from Becton Dickinson. FIG. 14A relates to granulocytes. FIG. 14B relates to monocytes. FIG. 14C relates to lymphocytes. […] Accordingly, it can again be seen that OPN305 is competing for monkey Toll-like Receptor 2 binding.
For orientation: A flow cytometer gives signals particle by particle.

The target in assay [4] is T3, monkey Toll-like Receptor 2 expressed …. The assay can be described thus: FACS, cynomolgus whole blood, gate Granulocytes (R3), OPN305 + FITC mouse anti-hIgG4 [A].

T1 sequence (O60603 21-588 limits assumed): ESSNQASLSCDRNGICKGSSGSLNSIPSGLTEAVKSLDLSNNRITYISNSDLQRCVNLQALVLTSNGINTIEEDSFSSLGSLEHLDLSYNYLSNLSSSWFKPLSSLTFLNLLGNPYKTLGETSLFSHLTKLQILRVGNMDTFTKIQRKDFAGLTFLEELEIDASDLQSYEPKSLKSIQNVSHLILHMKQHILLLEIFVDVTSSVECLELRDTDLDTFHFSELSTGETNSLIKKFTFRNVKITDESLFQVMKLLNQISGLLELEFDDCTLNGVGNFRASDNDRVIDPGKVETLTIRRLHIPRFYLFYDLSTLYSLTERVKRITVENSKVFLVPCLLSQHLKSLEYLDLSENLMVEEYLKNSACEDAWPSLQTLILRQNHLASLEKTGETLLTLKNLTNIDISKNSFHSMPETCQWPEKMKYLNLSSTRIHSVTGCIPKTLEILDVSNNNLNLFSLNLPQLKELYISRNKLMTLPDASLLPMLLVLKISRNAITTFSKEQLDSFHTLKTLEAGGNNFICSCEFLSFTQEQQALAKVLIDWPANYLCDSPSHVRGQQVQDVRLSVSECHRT

B1: T2.5 murine anti-Toll-like Receptor 2 monoclonal antibody (clone T2.5, HyCult Biotechnology, catalogue number 1054) (antibody, mouse IgG1, V domains shown)
VH: QVQLQQSGPELVNPGASVKLSCKASGFTFTTYGINWVKQGPGQGLEWIGWIYPRDGSTNFNENFKDKAALTVDTSSSTAYMELHSLTSEDSAVYFCARLTGGTFLDYWGQGTTLTVSS
VL: DIVLTQSPASLAVSLGQRATISCRASESVEYYGTSLMQWYQQKPGQPPKLLIFGASNVESGVPVRFSGSGSGTDFSLNIHPVEEDDIVMYFCQQSRKLPWTFGGGTKLEIK
notes: Murine IgG1, bought; also called OPN301
Regarding B1, in assay [1], the Kd came to 48.2 nM, the koff was 0.00023 s⁻¹ and the kon was 4820 M⁻¹ s⁻¹. Moreover, in assay [2], the Kd is 15.6 nM, the dissociation rate constant (koff) was 0.000141 s⁻¹ and the kon was 9700 M⁻¹ s⁻¹. For the same molecule, in assay [3], the binding result is recorded as “binds”.

B2: OPN-305 fully humanised anti-Toll-like Receptor 2 monoclonal antibody (antibody, human IgG4 S228P, kappa, V domains shown)
VH: QVQLVQSGSELKKPGASVKLSCKASGFTFTTYGINWVRQAPGQGLEWIGWIYPRDGSTNFNENFKDRATITVDTSASTAYMELSSLRSEDTAVYFCARLTGGTFLDYWGQGTTVTVSS
VL: DIVLTQSPATLSLSPGERATLSCRASESVEYYGTSLMQWYQQKPGQPPKLLIFGASNVESGVPDRFSGSGSGTDFTLKISRVEAEDVGMYFCQQSRKLPWTFGGGTKVEIKR
notes: made in NS0 cells; also called variant 21
On to B2, for which the binding result in assay [4] is on record as “binds”. Moreover, in assay [1], the Kd is 28.9 nM, the koff came out at 8.95e-05 s⁻¹ and the kon came to 3100 M⁻¹ s⁻¹. Moreover, in assay [2], the Kd worked out at 11.9 nM, the off-rate (koff) stood at 8.2e-05 s⁻¹ and the kon was 6770 M⁻¹ s⁻¹.

The term koff denotes the first-order rate constant of dissociation. The term kon denotes the second-order rate constant of association.

Values taken from patent US20120164159A1 (OPSONA THERAPEUTICS, published 2012).
